B1: LINE1-full (parent)
chain: UACGUAGGUGGUUUUCCCCUGAUAGUGCUAAGGGGGCCUGGAAGUUUGGACUGGGCAGAGCUCAACACAGCGUGGCAAAGUGGCUGUGGCUAGACUGCCUCUCUGGAUUCCUCGUCACUCAGCAGGGCAUCUCUGAGAGAAAUGCC

Variants of: B1
Assay: self-cleavage, relative activity (ratio to wild type); higher = more cleavage; in vitro, sequencing; the parent is a self-cleaving ribozyme

Row | Variant | self-cleavage
1 | UACGUAGGUGGUUUUCCCCUGAUAGUGCUAAGGGGGCCUGGAAGUUUGGACUGGGCAGAGCUCAACACAGCGUGGCAAAGUGGCUGCGGCUAGACUGCCUCUCUGGAUUCCACGUCACUCAGCAGGGCAUCUCUGAGAGAAAUGCC [U87C U112A] | 0.16
2 | UACGUAGGUGGUUUUCCCCUGAUAGUGCUAAGGGGGCCUGGAAGUUUGGACUGGGCAGAGCUCAACACAGCGUGACAAAGUGGCUCUGGCUAGACUGCCUCUCUGGAUUCCUCGUCACUCAGCAGGGCAUCUCUGAGAGAAAUGCC [G75A G86C] | 0.07
3 | UACGCAGGUGGUUUUCCCCUGAUAGUGCUAAGGGGACCUGGAAGUUUGGACUGGGCAGAGCUCAACACAGCGUGGCAAAGUGGCUGUGGCUAGACUGCCUCUCUGGAUUCCUCGUCACUCAGCAGGGCAUCUCUGAGAGAAAUGCC [U5C G36A] | 0.4
4 | UACGUAGGUGGUUUUCCCCUGAUAGUGCUAAGGGGGCCUGGAAGUUUGGACUGGGCAGAGCUCAACACAGCGUGGCAGAGUGGCUGUGGCUAGACUGCCUCUCUGGAUUCCUCGUCACUCAGCAGGGCAUCCCUGAGAGAAAUGCC [A78G U132C] | 1.39
5 | UACGUAGGUGGUUUUCCCCUGAUAGUGCUAAGGGGGCCUGGAAGUUUGGACUGGGCAGAGCUCAACACAGCGUGGCAAAGUUGCUGUGGCUAGACUGCCUCUCUGGAUUCCUCGUCUCUCAGCAGGGCAUCUCUGAGAGAAAUGCC [G82U A117U] | 1.3
6 | UACGUAGGUGGUUUUCCCCUGAUAGUGCUAAGGGGGCCUGGAAGAUUGGACUGGGCAGAACUCAACACAGCGUGGCAAAGUGGCUGUGGCUAGACUGCCUCUCUGGAUUCCUCGUCACUCAGCAGGGCAUCUCUGAGAGAAAUGCC [U45A G60A] | 0.03
7 | UACGUAGGUGGUUUUCCCCUGAUAGUGCUAAGGGGGCCUGGAAGUUUGGACUGGGUAGAGCUCAGCACAGCGUGGCAAAGUGGCUGUGGCUAGACUGCCUCUCUGGAUUCCUCGUCACUCAGCAGGGCAUCUCUGAGAGAAAUGCC [C56U A65G] | 0.03
8 | UACGUAGGUGGUUUUCCCCUGAUAGUGCUAAGGGGGCCUGGAAGUUUGGACUGGGCCGAGCUCAACACAGCGUGGCAAAGUGGCUGCGGCUAGACUGCCUCUCUGGAUUCCUCGUCACUCAGCAGGGCAUCUCUGAGAGAAAUGCC [A57C U87C] | 0
9 | UACGUAGGUGGUUUUCCCCUGAUAGUGCUAAAGGGGCCUGGAAGUUUGGACUGGGCAGAGCUCAACACAGCGUGGCAAAGUGGCUGUGGCUAGACUGCCUCUCUGGAUUCCUCGUCACUCAGCAGGGCAUCUCUGGGAGAAAUGCC [G32A A136G] | 1.35
10 | UUCGUAGGUGGUUUUCCCCUGAUAGUGCUAAGGGGGCCUGGAAGUUUGGACUGGGCAGAGCUCAACACAGCGUGGCAAAGUGGCUGUGGCUAGACUGCCUCUCUGGAUUCCUAGUCACUCAGCAGGGCAUCUCUGAGAGAAAUGCC [A2U C113A] | 0.63
11 | UACGUAGGAGGUUUUCCCCUGAUAGUGCUAAGGGGGCCUGGAAGUUUGGACUGGGCAGAGCUCAACACAGCGUGGCAAAGUGGCUGUGGCUAGACUGCCUCUCUGGAUUCCUCGUCACUCAGCAGGGCGUCUCUGAGAGAAAUGCC [U9A A129G] | 1.24
12 | UACGUAGGUGGUUUUCCUCUGAUAGUGCUAAGGGGGCCUGGAAGUUUGGACUGGGCAGAGCUCAACACCGCGUGGCAAAGUGGCUGUGGCUAGACUGCCUCUCUGGAUUCCUCGUCACUCAGCAGGGCAUCUCUGAGAGAAAUGCC [C18U A69C] | 0.07
13 | UACGUAGGUGGUUUUCCCCUGAUAGCGCUAAGGGGGCCUGGAAGUUUGGACUGGGCAGAGCUCAACACAGCGUGGCAAAGUGGCUGUGGCUAGACUGCCUCUCUGGGUUCCUCGUCACUCAGCAGGGCAUCUCUGAGAGAAAUGCC [U26C A107G] | 1.33
14 | UACGUAGGUGGUCUUCCCCUGAUAGUGCUAAGGGCGCCUGGAAGUUUGGACUGGGCAGAGCUCAACACAGCGUGGCAAAGUGGCUGUGGCUAGACUGCCUCUCUGGAUUCCUCGUCACUCAGCAGGGCAUCUCUGAGAGAAAUGCC [U13C G35C] | 1.24
15 | UACGUAGGUGGUUUUCCCCUGAUAGUGCUAAGGGGGCCUGGAAGUUUGGACUGGGCAGAGCUCAAAACAGCGUGGCAAAGUGGCUGUGGCUAGACUGCCUCUCUGGGUUCCUCGUCACUCAGCAGGGCAUCUCUGAGAGAAAUGCC [C66A A107G] | 0.03
16 | UACGUAGGUGGUUUUCCCCUGAUAGUGCUAAGGGGGCCUGGAAGUUUGGACUGGGCAGAGCUCAACACAGCGAGGCAAAGUGGCUGUGGCCAGACUGCCUCUCUGGAUUCCUCGUCACUCAGCAGGGCAUCUCUGAGAGAAAUGCC [U73A U91C] | 0.19
17 | UACGUAGGUGGUUUUCCCCUGAUAGCGCUAAGGGGGCCUGGAAGUUUGGACUGGGCAGAGCUCAACACAGCGUGGCAAAGUGGCUGUGGCUAGACUGCCUCUCUGGAUUCCUCGUCACUCAGCAGGGCAUCUCUGGGAGAAAUGCC [U26C A136G] | 1.42
18 | UACGUAGGUGGUUUUCCCCUGAUAGUGCCAAGGGGGCCUGGAAGUUUGGACUGGGCAGAGCUCAACACAGAGUGGCAAAGUGGCUGUGGCUAGACUGCCUCUCUGGAUUCCUCGUCACUCAGCAGGGCAUCUCUGAGAGAAAUGCC [U29C C71A] | 0.32
19 | UACGUAGGUGGUUUUCCCCUGAUAGUGCUAAGGGGGCCUGGAAGUUUGGACUGGGCAGAGCUCAACACAGUGUGGCAAAGUGGCUGUGGCUAGACUGCCUCUCUGGAUUCCUCGGCACUCAGCAGGGCAUCUCUGAGAGAAAUGCC [C71U U115G] | 1.23
20 | UACGUAGGUGGUUUUCCCCUGAUGGUGCUAAGGGGGCCUGGAAGUUUGGACUGGGCAGAGCUCCACACAGCGUGGCAAAGUGGCUGUGGCUAGACUGCCUCUCUGGAUUCCUCGUCACUCAGCAGGGCAUCUCUGAGAGAAAUGCC [A24G A64C] | 0.38

Row | Variant | self-cleavage
21 | UACGUAGGUGGUUUUCCCCUGAUAGUGCUAAGGGGGCCUGGAAGUUUGGACUGGGCAGAGCUCAACACAACGUGGCAAAGUGGCUGUGGCUAGACUGCCACUCUGGAUUCCUCGUCACUCAGCAGGGCAUCUCUGAGAGAAAUGCC [G70A U100A] | 0.05
22 | UACGUAGGUGGUUUUCCCCUGAUAGUGCUACGGGGGCCUGGAAGUUUGGACUGAGCAGAGCUCAACACAGCGUGGCAAAGUGGCUGUGGCUAGACUGCCUCUCUGGAUUCCUCGUCACUCAGCAGGGCAUCUCUGAGAGAAAUGCC [A31C G54A] | 1.02
23 | UACGUAGGUGGUUUCCCCCUAAUAGUGCUAAGGGGGCCUGGAAGUUUGGACUGGGCAGAGCUCAACACAGCGUGGCAAAGUGGCUGUGGCUAGACUGCCUCUCUGGAUUCCUCGUCACUCAGCAGGGCAUCUCUGAGAGAAAUGCC [U15C G21A] | 1.11
24 | UACGUAGGUGGUUUUCCCCUGAUAGUGCUAAGGGGGCCUGGAAGUUUGGACUGGGCAGAGCUCAACACAGCGUGGCAAAGUGGCUGUGGCUAGACUGCCUCUCUGGAUUCCUCGUCACUCAGCAGGGCAUCUCUGAGAGAAACACC [U143C G144A] | 2.03
25 | UACGUAGGUGGUUUUCCCCUGAUAGUGCUAAGGGGGCCUGGAAGUUUGGACUGGGCAGAGCUCAACACAGCGUGGCCAAGUGGCUGUGGCUAGACUGCCUCACUGGAUUCCUCGUCACUCAGCAGGGCAUCUCUGAGAGAAAUGCC [A77C U102A] | 1.37
26 | UACAUAGGUGGUUUUCCCCUGAUAGUGCUAAGGGGGCCUGGAAGUUUGGACUGGGCAGAGCUCAGCACAGCGUGGCAAAGUGGCUGUGGCUAGACUGCCUCUCUGGAUUCCUCGUCACUCAGCAGGGCAUCUCUGAGAGAAAUGCC [G4A A65G] | 0
27 | UACGUAGGUGGUUUUCCCCUGAUAGUGCUAAGGGGGCCUGGAAGUUUGGACUGGGCAGAGCUCAACACAGCGUGGCAAAGUGGCUGUGGCUAGACUGCCUCUCUGGAUUCCUCGUCAUUCAGCAGGGCAUCUCUGAGAGAGAUGCC [C118U A141G] | 1.8
28 | UACGUAGGUGGUUUUCCCCUGAUAGUGCUAGUGGGGCCUGGAAGUUUGGACUGGGCAGAGCUCAACACAGCGUGGCAAAGUGGCUGUGGCUAGACUGCCUCUCUGGAUUCCUCGUCACUCAGCAGGGCAUCUCUGAGAGAAAUGCC [A31G G32U] | 1.13
29 | UACGUAGGUGGUUUUCCCCUGAUAGUGCUAAGGGGGCCUGGAAGUUUGGACUGGGCAGAGCUCAACACAGCGUGGCAAAGUGGCUGUGGCUAGACUGCCUCUCUGGAUUCCUCGUCACUCAGCAGGGCUUCUCUGAGAGAAAAGCC [A129U U143A] | 1.59
30 | UACGUAGGUGGUUUUCCCCUGAUAGUGCUAAGGGGGCCUGGAAGUUUGGACUGGGCAGAGCUCAACACAGCGUGGCAAAGUGGCUGUGGCUAGACUUCCUCUCUGGAUUCCUCGUCACUCAGCAGGGCAUCACUGAGAGAAAUGCC [G97U U132A] | 0.03
31 | UACGUAGGUGGUUUUCCCCUGAUAGUGCUAAGGGGGCCUGGAAGUUUGGACUGGGCAGUGCUCAACACAGCGUGGCAAAGUGGCUGUGGCUAGACUGCCUCUCUGGAUUCCUCGUCACUCAGCAGGGCAUCUCCGAGAGAAAUGCC [A59U U134C] | 0.92
32 | UACGUAGGUGGUUUUCCCCUGAUAGUGCUAAGGGGGCCUGGGAGUUUGGACUGGGCAGAGCUCAACACAGCGUGGCAUAGUGGCUGUGGCUAGACUGCCUCUCUGGAUUCCUCGUCACUCAGCAGGGCAUCUCUGAGAGAAAUGCC [A42G A78U] | 1.66
33 | UUCGUAGGUGAUUUUCCCCUGAUAGUGCUAAGGGGGCCUGGAAGUUUGGACUGGGCAGAGCUCAACACAGCGUGGCAAAGUGGCUGUGGCUAGACUGCCUCUCUGGAUUCCUCGUCACUCAGCAGGGCAUCUCUGAGAGAAAUGCC [A2U G11A] | 0.92
34 | UACGUAGGUGGUUUUCCCCAGAUAGUGCUAAGGGGGCCUGGAAGCUUGGACUGGGCAGAGCUCAACACAGCGUGGCAAAGUGGCUGUGGCUAGACUGCCUCUCUGGAUUCCUCGUCACUCAGCAGGGCAUCUCUGAGAGAAAUGCC [U20A U45C] | 1.36
35 | UACGUAGGUGGUUUUCCCCUGAUAGUACUAAGGGGGCCUGGAAGUUUGGACUGGGCAGAGCUCAACACAGCGUGGCAAAGUGGCUGUGGCCAGACUGCCUCUCUGGAUUCCUCGUCACUCAGCAGGGCAUCUCUGAGAGAAAUGCC [G27A U91C] | 0.35
36 | UACGUAGGUGGUUUUCCCCUGAUAGUGCUAAGGGGGCCUGGAAGUUUGGACUGGGCAGAGCCCAACACAGCGUGGCAAAGUGGCUGUGGCUAGGCUGCCUCUCUGGAUUCCUCGUCACUCAGCAGGGCAUCUCUGAGAGAAAUGCC [U62C A94G] | 0.11
37 | UACGUAGGUGGUUUUCCCCUGGUAGUGCUAAGGGGGCCUGGAAGUUUGGACUGGGCAGAGCUCAACACAGCGUGGCAAAGUGGCUGUGGCUAGACUGCCUCUCUGGAUUCCUCGUUACUCAGCAGGGCAUCUCUGAGAGAAAUGCC [A22G C116U] | 0.24
38 | UACGUAGGUGGUUUUCCCCUGAUAGUGCUAAGGGGGCCUGGAAGUUUGGACUGGGCAGAGCUCAACACAGCGUGGCAAAGUGGCUGUGGCUAGUCUGCCUCUCUGGAUUCCUCGUCACUCAGCAGGGCAUCUCUGAGAGGAAUGCC [A94U A140G] | 0.23
39 | UACGUAGGUGGUUUUCCCCUGAUAGAGCUAAGGGAGCCUGGAAGUUUGGACUGGGCAGAGCUCAACACAGCGUGGCAAAGUGGCUGUGGCUAGACUGCCUCUCUGGAUUCCUCGUCACUCAGCAGGGCAUCUCUGAGAGAAAUGCC [U26A G35A] | 0.67

— the RNAGym collection of RNA variant scans (doi:10.7554/elife.90254)
